Values joined by “and” are separate entries in the source; they are usually repeats but may differ in a detail not shown here. Equal values may be shown once.

The target in experiment [1] is T1, human CD37 (human, UniProt P11049 1-278).
T1 sequence: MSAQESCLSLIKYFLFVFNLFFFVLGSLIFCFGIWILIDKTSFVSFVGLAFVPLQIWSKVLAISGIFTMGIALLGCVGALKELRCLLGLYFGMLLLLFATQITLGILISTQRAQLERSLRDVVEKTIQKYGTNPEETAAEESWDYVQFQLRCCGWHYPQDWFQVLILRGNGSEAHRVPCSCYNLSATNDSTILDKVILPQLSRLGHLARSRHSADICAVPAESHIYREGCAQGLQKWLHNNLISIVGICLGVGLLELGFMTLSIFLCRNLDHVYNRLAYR
As to the kind of experiment: cell-based or functional assay.

The target in experiment [2] is T1, human CD37. As to the kind of experiment: flow cytometry titration on BJAB cells (FIG. 20A); apparent Kd. On the technique in general: A flow cytometer gives signals particle by particle.
Experiment [3] addresses T1, human CD37. As to the kind of experiment: competition flow cytometry on BJAB cells; competitor PE-labeled muCD37-3 (1 nM). As for the experimental part: Flow cytometry binding assays using BJAB cells and a competitive binding format were used to evaluate binding affinity of chimeric and humanized versions of CD37-3. BJAB cells were incubated with a 1 nM concentration of PE-labeled muCD37-3 antibody and competition was measured by adding varying amounts of muCD37-3, chCD37-3, huCD37-3v1.0 or huCD37-3v1.01. The samples were incubated for 3 hrs at 4° C. Then, the cells were pelleted, washed with FACS buffer and resuspended in 200 μL of PBS containing 1% formaldehyde. Samples were acquired using a FACSCalibur flow cytometer with the HTS multiwell sampler and analyzed using CellQuest Pro (all from BD Biosciences, San Diego, US). The resulting mean PE fluorescence was plotted against the amount of competing antibody used in a semi-log plot. FIG. 9B depicts the dose-response curves generated by non-linear regression for each antibody. The value for the apparent dissociation constant (Kd) of each antibody was calculated using GraphPad Prism v4 (GraphPad software, San Diego, Calif.).

For another experiment, the target named is T2, macaque CD37 (macaque, UniProt P11049 1-277 (human entry)).
T2 construct: Expressed on 300-19 cells transfected with pSRa-CD37mac (300-19/CD37mac cells); also called macaca CD37; macaque derived CD37 antigen
T2 chain: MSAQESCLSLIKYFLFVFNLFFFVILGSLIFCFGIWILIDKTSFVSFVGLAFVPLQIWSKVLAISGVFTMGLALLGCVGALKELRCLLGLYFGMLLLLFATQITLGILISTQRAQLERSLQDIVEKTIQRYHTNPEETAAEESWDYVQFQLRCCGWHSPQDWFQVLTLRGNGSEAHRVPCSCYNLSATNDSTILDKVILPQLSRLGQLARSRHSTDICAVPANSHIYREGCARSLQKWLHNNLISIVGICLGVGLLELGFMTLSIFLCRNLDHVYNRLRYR
The experiment is described as follows: flow cytometry, 300-19/CD37mac cells. Here is the method: (§1) Binding specificity was tested by flow cytometry using purified antibodies. […] All murine antibodies were incubated for 3 h with either CD37-expressing 300-19 cells or the non-transfected 300-19 cells (1×10⁵ cells per sample) in 100 μL FACS buffer (RPMI-1640 medium supplemented with 2% normal goat serum). Then, the cells were pelleted, washed, and incubated for 1 h with 100 μL of FITC-conjugated goat anti-mouse IgG-antibody (Jackson Laboratory, 6 μg/mL in FACS buffer). The cells were pelleted again, washed with FACS buffer and resuspended in 200 μL of PBS containing 1% formaldehyde. Samples were acquired using a FACSCalibur flow cytometer with the HTS multiwell sampler or a FACS array flow cytometer and analyzed using CellQuest Pro (all from BD Biosciences, San Diego, US).
The murine antibodies muCD37-3, muCD37-12, muCD37-38, […], muCD37-51, muCD37-56 and muCD37-57 were assayed for their ability to bind to 300-19/CD37mac cells expressing macaque CD37. Flow cytometry binding assays were carried out using secondary FITC-conjugated goat-anti-murine or goat-anti-human antibodies, analyzed as described in Example 2. Binding was compared to the previously described anti-CD37 antibody WR17 and the anti-CD37 SMIP TRU-016. […] In contrast, muCD37-3, muCD37-12, the previously described anti-CD37 antibody WR17 and the anti-CD37 SMIP TRU-016 are unable to bind the macaque derived CD37 antigen.

The target of a further experiment is T3, hCD37-M45 (human/murine chimera, UniProt P11049 1-281).
T3 construct: stably expressed on 300-19 cells; also called hCD37-M45 variant
T3 chain: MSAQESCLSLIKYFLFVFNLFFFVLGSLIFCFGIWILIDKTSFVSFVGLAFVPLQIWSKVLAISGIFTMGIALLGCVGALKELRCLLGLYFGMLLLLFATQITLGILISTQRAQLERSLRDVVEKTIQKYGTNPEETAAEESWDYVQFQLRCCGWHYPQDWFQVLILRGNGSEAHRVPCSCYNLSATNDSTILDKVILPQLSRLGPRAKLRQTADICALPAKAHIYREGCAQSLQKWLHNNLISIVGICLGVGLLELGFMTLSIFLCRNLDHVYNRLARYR
As to the kind of experiment: flow cytometry, 300-19 cells expressing hCD37-M45. Here is the method:
as §1
(§2) Binding of various CD37 antibodies to cells expressing human CD37 wildtype and variants was analyzed by flow cytometry using 1.5 μg/mL of each antibody. The isolated antibodies of this invention were compared to commercially available CD37 antibody WR17, as well as the TRU-016 SMIP. […] Likewise, all antibodies tested bound the hCD37-M3 variant (FIG. 18B). In contrast, the isolated antibodies of this invention bound the hCD37-M1 variant, while TRU-016 and WR17 were unable to bind hCD37-M1 variant (FIG. 19A). The CD37-50 and CD37-51 antibodies and TRU-016 were also able to bind the hCD37-M45 variant. […] In contrast, the CD37-3, CD37-12, CD37-38, CD37-56 and CD37-57 antibodies require at least one of the AA residues in the hCD37-M45 variant that were changed to the corresponding murine AA residues for binding to the CD37 antigen.

Experiment [4] concerns the target T1, human CD37. The experiment is described as follows: flow cytometry titration on BJAB cells; apparent Kd. Here is the method: as §1
The humanized antibodies huCD37-38, huCD37-50, huCD37-51, huCD37-56 and chCD37-57 were assayed for their binding affinity to BJAB cells in comparison to their murine counterparts. Flow cytometry binding assays were carried out using secondary FITC-conjugated goat-anti-murine and -anti-human antibodies, analyzed as described in Example 2 and dose-response curves were generated by non-linear regression for each antibody. The value for the apparent dissociation constant (Kd) of each antibody was calculated using GraphPad Prism v4 (GraphPad software, San Diego, Calif.).

A further experiment has as its target T4, hCD37-M1 (human/murine chimera, UniProt P11049 1-281).
T4 construct: stably expressed on 300-19 cells; also called hCD37-M1 variant
T4 chain: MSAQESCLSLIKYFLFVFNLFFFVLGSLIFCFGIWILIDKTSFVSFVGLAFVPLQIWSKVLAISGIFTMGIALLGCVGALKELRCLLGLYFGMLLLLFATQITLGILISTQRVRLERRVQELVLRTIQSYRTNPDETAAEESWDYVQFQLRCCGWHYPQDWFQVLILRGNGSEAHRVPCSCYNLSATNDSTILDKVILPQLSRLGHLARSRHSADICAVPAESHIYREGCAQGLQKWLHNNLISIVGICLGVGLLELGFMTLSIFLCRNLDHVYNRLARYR
The experiment is described as follows: flow cytometry, 300-19 cells expressing hCD37-M1, 1.5 µg/mL antibody. Here is the method:
as §1, §2

The target in the next experiment is T5, hCD37-M3 (human/murine chimera, UniProt P11049 1-281).
T5 construct: stably expressed on 300-19 cells; also called hCD37-M3 variant
T5 chain: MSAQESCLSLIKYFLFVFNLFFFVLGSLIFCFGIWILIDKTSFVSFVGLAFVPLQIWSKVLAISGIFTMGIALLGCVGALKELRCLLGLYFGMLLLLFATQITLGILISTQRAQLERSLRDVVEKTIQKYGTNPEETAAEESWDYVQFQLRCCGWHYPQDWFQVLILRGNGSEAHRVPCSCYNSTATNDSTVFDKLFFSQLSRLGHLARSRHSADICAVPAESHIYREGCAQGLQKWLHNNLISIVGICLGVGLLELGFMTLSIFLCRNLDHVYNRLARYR
The experiment is described as follows: flow cytometry, 300-19 cells expressing hCD37-M3, 1.5 µg/mL antibody. As for the experimental part: as §1, §2

B1: huCD37-3-SMCC-DM1 (antibody, human IgG1, kappa, V domains shown)
VH: QVQVQESGPGLVAPSQTLSITCTVSGFSLTTSGVSWVRQPPGKGLEWLGVIWGDGSTNYHPSLKSRLSIKKDHSKSQVFLKLNSLTAADTATYYCAKGGYSLAHWGQGTLVTVSS
VL: DIQMTQSPSSLSVSVGERVTITCRASENIRSNLAWYQQKPGKSPKLLVNVATNLADGVPSRFSGSGSGTDYSLKINSLQPEDFGTYYCQHYWGTTWTFGQGTKLEIKR
modifications: DM1 attached through SMCC linker; attachment residues not stated; 3.5-4 DM1 per antibody
notes: heavy chain version as for huCD37-3, see its note
For the molecule B1, in the experiment with human CD37 [1], the “EC50 of in vitro cytotoxicity, BJAB cells” value was 41 pM and 19 pM; the “EC50 of in vitro cytotoxicity, Daudi cells” value is 65 pM and 36 pM; the “EC50 of in vitro cytotoxicity, Namalwa cells” value came out at 33 pM; the “EC50 of in vitro cytotoxicity, Raji cells” value was 71 pM. For the same molecule, in the experiment with human CD37 [1], the “EC50 of in vitro cytotoxicity, Raji-VCR cells” value was 110 pM; the “EC50 of in vitro cytotoxicity, Ramos cells” value turned out to be 160 pM; the “EC50 of in vitro cytotoxicity, SU-DHL-4 cells” value amounted to 31 pM; the “EC50 of in vitro cytotoxicity, WST-8 assay, Daudi cells” value was determined as 67 pM. For the same molecule, the “EC50 of in vitro cytotoxicity, WST-8 assay, Granta-519 cells” value with human CD37 [1] is 47 pM. Besides, in the experiment with human CD37 [2], the Kd came out at 460 pM.

B2: huCD37-3v1.0 (antibody, human IgG1, kappa, V domains shown)
VH: QVQVQESGPGLVAPSQTLSITCTVSGFSLTTSGVSWVRQPPGKGLEWLGVIWGDGSTNYHPSLKSRLSIKKDHSKSQVFLKLNSLTAADTATYYCAKGGYSLAHWGQGTLVTVSS
VL: DIQMTQSPSSLSVSVGERVTITCRASENIRSNLAWYQQKPGKSPKLLVNVATNLADGVPSRFSGSGSGTDYSLKINSLQPEDFGTYYCQHYWGTTWTFGQGTKLEIKR
notes: Resurfaced (humanized) CD37-3, version 1.0
On to B2, for which, in the experiment with human CD37 [3], the 50% effective concentration (EC50) (as a rule, the concentration giving half of the maximal effect) was found to be 1000 pM.

B3: huCD37-3v1.01 (antibody, human IgG1, kappa, V domains shown)
VH: QVQVQESGPGLVAPSQTLSITCTVSGFSLTTSGVSWVRQPPGKGLEWLGVIWGDGSTNYHSSLKSRLSIKKDHSKSQVFLKLNSLTAADTATYYCAKGGYSLAHWGQGTLVTVSS
VL: DIQMTQSPSSLSVSVGERVTITCRASENIRSNLAWYQQKPGKSPKLLVNVATNLADGVPSRFSGSGSGTDYSLKINSLQPEDFGTYYCQHYWGTTWTFGQGTKLEIKR
notes: also called huCD37-3v1.1
In the experiment with human CD37 [3], B3 returned an EC50 of 600 pM.

B4: muCD37-38 (antibody, mouse IgG1, kappa, V domains shown)
VH: DVQLQESGPDLVKPSQSLSLTCTVTGYSITSGFGWHWIRQFPGNKLEWMAYILYSGGTDYNPSLKSRISITRDTSKNQFFLRLSSVTTEDTATYYCARGYYGYGAWFVYWGQGTLVTVSA
VL: QIVLTQSPAIMSASPGEKVTMTCSASSSVTYMHWYQQKSGTSPKRWIYDTSKLASGVPARFSGGGSGTSYSLTISSMEAEDAATYYCQQWISNPPTFGGGTKLEIKR
notes: Murine hybridoma antibody
As for B4, the binding result in the experiment with macaque CD37 is recorded as “binds”; with hCD37-M45 it was “no binding (tested: 1.5 µg/mL)”; in the experiment with hCD37-M1 it was “binds”; in the experiment with hCD37-M3, “binds”. Further, the Kd in the experiment with human CD37 [4] was 400 pM.

B5: muCD37-56 (antibody, mouse IgG1, kappa, V domains shown)
VH: DVQLQESGPDLVKPSQSLSLTCTVTGYSITSGFAWHWIRQFPGNKLEWMGYIHYSGGTNYNPSLKSRVSITRDTSKNQFFLQLNSVTTEDTATYYCARGYYGFGAWFAYWGQGTLVPVSA
VL: QIVLTQSPAFMSASPGDKVTMTCSASSSVTYMHWYQQKSGTSPKRWIYDTSKLASGVPARFSGGGSGTSYSLTISTMEAEDAATYYCQQWISDPPTFGGGTKLEIKR
notes: Murine hybridoma antibody
In the case of B5, the binding result is “binds” in the experiment with macaque CD37, “no binding (tested: 1.5 µg/mL)” with hCD37-M45, “binds” with hCD37-M1 and “binds” in the experiment with hCD37-M3. The Kd in the experiment with human CD37 [4] stood at 400 pM.

B6: muCD37-57 (antibody, mouse IgG2a, kappa, V domains shown)
VH: DVQLQESGPDLLKPSQSLSLTCTVTGYSITSGFAWHWIRQFPGNKLEWMGYILYSGSTVYSPSLKSRISITRDTSKNQFFLQLNSVTTEDTATYYCARGYYGYGAWFAYWGQGTLVTVSA
VL: QIVLTQSPAIMSASPGEKVTMTCSATSSVTYMHWYQQKSGTSPKRWIYDTSKLASGVPARFSGSGSGTSYSLTISSMEAEDAATYYCQQWSDNPPTFGSGTKLEIKR
notes: Murine hybridoma antibody
For B6, the binding result with macaque CD37 is on record as “binds”; in the experiment with hCD37-M45 it was “no binding (tested: 1.5 µg/mL)”; with hCD37-M1, “binds”; with hCD37-M3, “binds”. For the same molecule, the Kd with human CD37 [4] was 1000 pM.
